Measurements taken from patent US20060199251.

Key:
[1] = biological target: H6-IEGR-RAP
[2] = biological target: H6Ubi-IEGR-ApoA1
[3] = biological target: T1, Ac-IEPD-pNA (N-acetyl-L-isoleucyl-L-glutamyl-L-prolyl-L-aspartyl-p-nitroaniline)
T1 chain: IEPD

[4] = biological target: H6-TripUB IEPD↓EG
[5] = biological target: H6-TripUB IEPD↓EP
[6] = biological target: H6-TripUB IEPD↓IV
[7] = biological target: H6-TripUB IEPD↓SP
[8] = biological target: H6-TripUB IEPD↓TQ
[9] = biological target: H6-TripUB IQAD↓SG
[10] = biological target: H6-TripUB IQAD↓SP
[11] = biological target: H6Ubi-IEPD-ApoA1

Sequence of H6-IEGR-RAP (P30533 whole entry): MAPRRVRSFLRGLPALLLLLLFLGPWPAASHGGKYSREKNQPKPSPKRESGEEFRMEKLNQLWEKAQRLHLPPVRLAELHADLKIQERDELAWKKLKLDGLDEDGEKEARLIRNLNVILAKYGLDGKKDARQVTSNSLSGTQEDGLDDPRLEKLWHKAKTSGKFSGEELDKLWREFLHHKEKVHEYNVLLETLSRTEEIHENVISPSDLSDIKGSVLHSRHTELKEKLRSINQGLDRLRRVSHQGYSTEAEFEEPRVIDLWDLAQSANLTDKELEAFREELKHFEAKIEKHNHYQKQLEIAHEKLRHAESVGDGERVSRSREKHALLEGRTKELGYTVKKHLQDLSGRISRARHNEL

B1: purified bovine blood clotting factor Xa (protein)
chain: ANSFLEEVKQGNLERECLEEACSLEEAREVFEDAEQTDEFWSKYKDGDQCEGHPCLNQGHCKDGIGDYTCTCAEGFEGKNCEFSTREICSLDNGGCDQFCREERSEVRCSCAHGYVLGDDSKSCVSTERFPCGKFTQGRSRRWAIHTSEDALDASELEHYDPADLSPTESSLDLLGLNRTEPSAGEDGSQVVRIVGGRDCAEGECPWQALLVNEENEGFCGGTILNEFYVLTAAHCLHQAKRFTVRVGDRNTEQEEGNEMAHEVEMTVKHSRFVKETYDFDIAVLRLKTPIRFRRNVAPACLPEKDWAEATLMTQKTGIVSGFGRTHEKGRLSSTLKMLEVPYVDRSTCKLSSSFTITPNMFCAGYDTQPEDACQGDSGGPHVTRFKDTYFVTGIVSWGEGCARKGKFGVYTKVSNFLKWIDKIMKARAGAAGSRGHSEAPATWTVPPPLPL
- cleavage of fusion protein, SDS PAGE, ½ hour at 23° C., protease:fusion protein 1:1000 [1]: After only ½ hour almost all of the fusion protein had been cleaved to give the correct product for both incubations
- degradation of fusion protein, SDS PAGE, 27 hours at 23° C. [1]: all of the fusion protein had been degraded to give a variety of smaller fragments after 27 hours, and there is no correctly cleaved product left
- fusion protein cleaved, SDS PAGE, 6 hours at 23° C., protease:substrate 1:1000 [2]: only a small fraction of the FXa substrate, H6Ubi-IEGR-ApoA1, has been cleaved after 6 hours
- time to complete cleavage, 23° C., protease:substrate 1:1000 [2]: FXa requires more than 48 hours to complete the cleavage of the FXa substrate

B2: GrB-H6 C228F (activated human Granzyme B variant, Cys228 (chymotrypsinogen numbering) to Phe, C-terminal hexa-His tag) (protein)
chain: MGSIEPDIIGGHEAKPHSRPYMAYLMIWDQKSLKRCGGFLIQDDFVLTAAHCWGSSINVTLGAHNIKEQEPTQQFIPVKRPIPHPAYNPKNFSNDIMLLQLERKAKRTRAVQPLRLPSNKAQVKPGQTCSVAGWGQTAPLGKHSHTLQEVKMTVQEDRKCESDLRHYYDSTIELCVGDPEIKKTSFKGDSGGPLVCNKVAQGIVSYGRNNGMPPRAFTKVSSFVHWIKKTMKRYLNSHHHHHH
- KM (µM), colorimetric assay, Lineweaver-Burk plot, 100 mM HEPES pH 7.75, 20 nM enzyme [3]: 27 µM
- kcat [3]: 4.85 s⁻¹
- kcat/KM (10^4 s^-1M^-1) [3]: 180000 s^-1M^-1
- cleavage of fusion protein, SDS PAGE, 6 hours, protease:fusion protein 1:500 [4]: after only 6 hours the cleavage has been completed
- time to complete cleavage, protease to substrate ratio 1:500 [4]: it takes less than 5 hours for GrB-H6 C228F to complete the cleavage of H6-TripUbi IEPD↓EG
- fusion protein cleaved, SDS PAGE, 48 hours at 21° C., protease:fusion protein 1:500 [5]: after 48 hours at 21 °C approximately 35-40% has been cleaved
- fusion protein cleaved, SDS PAGE, 50 hours at 21° C., protease:fusion protein 1:500 [5]: after 50 hours at 21 °C approximately 40% has been cleaved
- cleavage of fusion protein, SDS PAGE, 24 hours at 23° C., protease:fusion protein 1:500 [6]: This is also the case for the cleavage of H6-TripUB IEPD↓IV (app. 100% completed after only 24 hours)
- cleavage of fusion protein, SDS PAGE, 96 hours at 23° C., protease:fusion protein 1:500 [7]: the cleavage is almost 100% complete after 96 hours
- fusion protein cleaved, SDS PAGE, 48 hours at 21° C., protease:fusion protein 1:500 [7]: After 48 hours approximately 40% has been cleaved at 21 °C
- cleavage of fusion protein, SDS PAGE, 24 hours at 23° C., protease:fusion protein 1:500 [8]: this is app. 100% completed after only 24 hours
- cleavage by immobilized enzyme, non-reducing SDS-PAGE, room temperature over night [9]: For all twelve cleavage experiments the fusion proteins are cleaved to give a single product corresponding to TripUbi moiety from which the H6 fusion partner has been cleaved off
- cleavage by immobilized enzyme, non-reducing SDS-PAGE, room temperature over night [10]: For all twelve cleavage experiments the fusion proteins are cleaved to give a single product corresponding to TripUbi moiety from which the H6 fusion partner has been cleaved off
- fusion protein cleaved, SDS PAGE, 6 hours at 23° C., protease:substrate 1:1000 [11]: The GrB substrate, H6Ubi-IEPD-ApoA1, is approximately 100% cleaved after only 6 hours incubation at 23 °C
